The target in this assay is intracellular (IC) wildtype penton of ASFV, HA-tagged (African swine fever virus (ASFV) Georgia 2007/1) (UniProt Q65190). The assay is described as follows: non-reducing SDS-PAGE with Western blot. (In general: In western blotting, separated proteins are transferred to a membrane and probed.)

Regarding “intracellular (IC) wildtype penton of ASFV, HA-tagged (from UniProt Q65190 1-240) (natural protein)”, the percent pentamer came out at 30% and the stoichiometry N stood at 5.

As a reminder, the stoichiometry N is a count of units in the complex or per binding partner.
